This is an account of results in patent US6127169.

The assay addresses specific cell surface receptors on mouse embryo fibroblasts.

B1: mouse β-galactoside binding protein (GBP), natural or recombinant, complexed or non-complexed form not told (ligand)
chain: ACGLVASNLNLKPGECLKVRGEVASDAKSFVLNLGKDSNNLCLHFNPRFNAHGDANTIVCNTKEDGTWGTEHREPAFPFQPGSITEVCITFDQADLTIKLPDGHEFKFPNRLNMEAINYMAADGDFKIKCVAFE
modifications: 125I label in the receptor binding assays
B1: the growth inhibition of synchronous mouse embryo fibroblasts (cell count) was determined as 100%.
